{
  "source": "paper doi:10.1101/2022.07.14.500063",
  "key": {"[1]": {"biological_target": "Delta+Y453F Spike on pseudotyped lentivirus (SARS-CoV-2) (UniProt P0DTC2)"}, "[2]": {"biological_target": "Delta+L455F Spike on pseudotyped lentivirus (SARS-CoV-2) (UniProt P0DTC2)"}, "[3]": {"biological_target": "Delta RBD+L455S (SARS-CoV-2) (UniProt P0DTC2)"}, "[4]": {"biological_target": "Delta RBD+E406D (SARS-CoV-2) (UniProt P0DTC2)"}, "[5]": {"biological_target": "Delta RBD+E406Q (SARS-CoV-2) (UniProt P0DTC2)"}, "[6]": {"biological_target": "Delta RBD+L455S (SARS-CoV-2) (UniProt P0DTC2)", "remark": "listed apart in the source"}},
  "data": [
    {"substance": "casirivimab (REGN10933) (antibody)", "values": [
      {"measurement": "fold reduction in pseudoviral neutralization titre against wild-type Delta", "setting": "[1]", "result": 16, "unit": "fold"},
      {"measurement": "fold reduction in pseudoviral neutralization titre against wild-type Delta", "setting": "[2]", "result": 17, "unit": "fold"},
      {"measurement": "fold reduction in pseudoviral neutralization titre against wild-type Delta", "setting": "[3]", "result": 155, "unit": "fold"},
      {"measurement": "fold reduction in pseudoviral neutralisation titre", "setting": "[4]", "result": 2, "unit": "fold"},
      {"measurement": "fold reduction in pseudoviral neutralisation titre", "setting": "[5]", "result": 12, "unit": "fold"},
      {"measurement": "fold reduction in pseudoviral neutralisation titre", "setting": "[6]", "result": 65, "unit": "fold"}
    ]}
  ]
}
